# Measured values reported in the DeepSol protein solubility set.
# Test: soluble on expression in E. coli; label from the status in PepcDB or PDB records
row,Sequence,soluble on expression in E. coli
1,MTYGPESLSNQELLAILLRTGTKKEHVLNLSIKILNGLDSLADFRSLSLEELQEIEGIGQVRSVEIKAMLELSKRINQAEYNFKERILSSERLAKIMMSELGDKRQEHLIAIYLDTQNRVIKKQVIFIGSVRRSVAEPREILHYACKSMATSLIIVHNHPSGSTYPSENDLRFTEKIKRSCDDLGIVFLDHIIVGKKEYYSFREETDLV,not soluble
2,MGHHHHHHSHGTRMDHRSDLVFLADLRPEEIRYRLQHYFKFLFVREPLERLLSAYRNKFGEIREYQQRYGAEIVRRYRAGAGPSPAGDDVTFPEFLRYLVDEDPERMNEHWMPVYHLCQPCAVHYDFVGSYERLEADANQVLEWVRAPPHVRFPARQAWYRPASPESLHYHLCSAPRALLQDVLPKYILDFSLFAYPLPNVTKEACQQ,not soluble
3,MGGSALNQGVLEGDDAPGQSLYERLSQRMLDISGDRGVLKDVIREGAGDLVAPDASVLVKYYGYLEHLDRPFDSNYFRKTPRLMKLGEDITLWGMELGLLSMQRGELARCFVLGKLLDSQGPSLHLYLRAS,not soluble
4,MAHTITIVGLGNYGIDDLPLGIYKFLKTQDKVYARTLDHPVIESLQDELTFQSFDHVYEAHDQFEDVYNDIVAQLVEAANEKDIVYAVPGHPRVAETTTVKLLALAKDNTDIDVKVLGG,soluble
5,MNKPLMSKATAVWLIDNTTLSFRQIADFCGMHELEVQGIADGDVATGVKGFDPVANNQLDAIEIEKGQRDPLYKMKLKFNPAAVGEEKRRGPRYTPLSKRQDRPAAILWLVKFHPELSDGAIAKLVGTTKPTIQSIRERTHWNIGSIQPIDPVALGLCRQTELDAAVQQAARRKAAEGVVMSDDERRKLVSTEQSLSMPDEPRMPSGLEQFGRSEEEKRPADFSDADSFFNLPHGDDADEEEDEDPARAAALEHHHHHH,soluble
6,AHHHHHHGSEKALILAEGRYKTTDGKTAHGLVRYSKRFEIVGVIDSTLAGRDAGEILDGIYRGIPIYGSLEEALAEHPDVKYLIIGVATPGGYLPPLYREIIKKAIKKRINIVNGLHNFLSDDPEFSRLAKRYKVQLIDVRKMYRDLKIPFTGKIKEVRAIKIAVLGTDAAIGKRTTAIMLHEAFERFGKKSVFVAMGQTGWMQGAKYCIVMDSIINDFVVGAIEDVIWRAWKEENPDVIVTHGEGSLLHPAYPGGFELIAAGRPDYIILQHAPARKFFDDFPQYEIPPLEKYIQLIELLSGKKPIAITINSEGLTKEEALQKAREIEETYGILTRVPLYEGVDDIVKAILEEVERIKVTVPQEGAVNASQVL,not soluble
7,MSLRYLLGIDVGTSGTKTALFDECGNTIKTSTHEYELFQPQVGWAEQNPENWWTACVKGIREVIEKSKIDPLDIKGIGISGQMHGLVLIDKEYKVIRNSIIWCDQRTEKECTQITDTIGKEKLIRITGNPALTGFTLSKLLWVRNNEPDNYKRIYKVLLPKDYIRFKLTGVFAAEVSDASGTQMLDINTRNWSEELLDDLRIDKNILPDVYESVVVSGCVIEKASKETKLAVNTPVVGGAGDQAAGAIGNGIVREGLISTVIGTSGVVFAATDTPRFDSKGRVHTLCHAVPNKWHIMGVTQGAGLSLNWFKRTFCAKEILESKEAGINIYDLLTEKASQSKPGSNGIIYLPYLMGERTPHIDPNVKGAFLGISLINNHNDFVRSILEGVGFSLKNCLDIIENMKVNIEEIRVSGGGAESSIWRQILSDIFNYELTTVKASEGPALGVAILAGVGAGIYNSVEEACDKIVKGNEKVMPNANLIEVYSKVYEVYNSAYPKIKDEGHHHHHH,soluble
8,MNNNLQRDAIAAAIDVLNEERVIAYPTEAVFGVGCDPDSETAVMRLLELKQRPVDKGLILIAANYEQLKPYIDDTMLTDVQRETIFSRWPGPVTFVFPAPATTPRWLTGRFDSLAVRVTDHPLVVALCQAYGKPLVSTSANLSGLPPCRTVDEVRAQFGAAFPVVPGETGGRLNPSEIRDALTGELFRQG,soluble
9,MSSAIERKSLDPSEEPVDEVLQIPPSLLTCGGCQQNIGDRYFLKAIDQYWHEDCLSCDLCGCRLGEVGRRLYYKLGRKLCRRDYLRLFGQDGLCASCDKRIRAYEMTMRVKDKVYHLECFKCAACQKHFCVGDRYLLINSDIVCEQDIYEWTKINGMI,not soluble
10,MGSDKIHHHHHHMPEPDPLRIKTFTTPKDLGEWLKVNHGSERELWVKIYKKNTGIESVTWNDVVIEVLCWGWIDGIKKSIDDQAYLQRITPRKMRSNWSKRNTEHAERLISEERMMESGLVHIRAAKSDGRWENAYVVSEMEVPADFLAALENKSNAKAFFETLNKSSRYVIAYGLISAKKPETRLRRFEKFMNMLVHEEKPK,not soluble
11,MKTQIIGVLGLGIFGQTLATELSSFGQDVIALDNNSTTIDFLADQVTKAAVGDITDIDFLRSAGIDTCDTVIIATGEHLESSALALLHCKKLGITNIIAKATNNNYEEVLYGMGANLVITPERSTAKDLASNILRCNISRIFHLEDDVALIELKIPNEWAGKSLHTLNLRQTYNVNVIGFRNEENGKLNTHFDPMNRLPNEGTILVVSDNRTLEKFDYLGYLKLEHHHHHH,soluble
12,MQRNVMSEIVYGDKQLQILIAAEKLIAEQGFQGLSMHKVAKAANMATGTIYRYFRDKDHLLIEVRLHVSQKIAEAVQANLRDDMSLQERFRTMWLNIWTLAGSCRDIISNRVQYESLPTTTCCNVRELEQKMFAKVELLFDQGKQQGIFKPLDNHLLSALSFETTVTLARQYALGFYQLDDSTLDAMIQASWDAITQH,not soluble
13,MLDHVSITVSDIAVAEPFYDAIMAALGVVKVGARGDWLGYGERARPEHPDRVYLSIRKGDRPEPAYGRHWCFKATSRAVVDAFWQAGLAHGGVDQGAPGLRDYHPGYYAAFIADPDGNRLEAVCHTLG,not soluble
14,MGSDKIHHHHHHMTKLTAHPQTEGAFTVASLEFLKQLAQHNSRDWFKTHQDEYENTIRTPALRFIEQIQPHIIAISPRLTAVAKKVGGSLMRPQRDSRFSKDKTPYKTNIGIQFRHFQGKDVHAPGLYLHIAEDGCFIAAGIWHPESKALNAIRTCIDENPNGYKKALQSLTNHGFMMDGDSLTRPPKGFDKHHPMLTELKRKDFIAVKNIPFERLCQRDAVHYCAEQLAHCSQLMAYLCFALELDF,not soluble
15,MNDGYKQNDIVNHEAYEELEVAEEQIIYCQEEYNDGPGTMVQVQEQTDVPCYVMEGTYFTPENIYAANQDHSVCHFCKEDLTNKRFYNHLFDHHGFTKQQCEMMKQQKRLGRPNPKRKSLHSCENCGMEFITKTGLTSHLKKDNSPCARVDEMAVGGSSVSNIVCPSYGCDKNVPTYLDLAIHVDTEHRDLSRATDSFRIRRVTFQDKAGFMKWKKQMEKSTNSEFFLRTSQKVSFAIRTMLYKCLFSNSRGQSKGRRCEQCPAFIKCCMRNHGQYEVVACFGHLGHEHPTETEIARQMRIEKYREIDALQVRESRMHNQHHMNVRPKQIIVDQYGHPTHPNDEMMILMPVGEEVVEEDAFTSVVVDDADDEIVGPRAQQETPALTRQVYIPTSNHHASSSHY,not soluble
16,KTSILLLLMIATALPSFGGNGNGNGTDSLQATRYVTRATMYGVGYTNVFDTYLSPQEYKGIEFRISRETMRMTTLGDGNVSVQNFFQANLAYTHNRVDNNNTFAGLVNWNYGLHYQFRITDNFKLLAGGMGDFNGGFVYNLRNTNNPASARAYINLDASGMAIWHTKIKNYPLALRYQVNLPVIGVMFSPHYGQSYYEIFTLGHASGVIRFTSLHNQPALRQMLSVDFPIRYTKMRLSYLCDLQQSKLNGIKTHTYSQVFMVGFVHDLFRIRNKNGTPLPPAVRAY,not soluble
17,STAGKVIKCKAAVLWELKKPFSIEEVEVAPPKAHEVRIKMVAAGICRSDEHVVSGNLVTPLPVILGHEAAGIVESVGEGVTTVKPGDKVIPLFTPQCGKCRICKNPESNYCLKNDLGNPRGTLQDGTRRFTCSGKPIHHFVGVSTFSQYTVVDENAVAKIDAASPLEKVCLIGCGFSTGYGSAVKVAKVTPGSTCAVFGLGGVGLSVVMGCKAAGAARIIAVDINKDKFAKAKELGATECINPQDYKKPIQEVLKEMTDGGVDFSFEVIGQLDTMMASLLCCHEACGTSVIVGVPPDSQNLSINPMLLLTGRTWKGAIFGGFKSKESVPKLVADFMAKKFSLDALITNVLPFEKINEGFDLLRSGKSIRTVLTF,soluble
18,MVAGNSAHEMVSILNQNRTARKLGKLNESPGLGCMALQYVELCEGNCNVNNTLSCEHPEDDFTQVFAPNCGVELPTFGTITGHILGCSSKYAAPEVAFSDILFRDSSALSVLRNRSHTEVGVGMARLHKGTFFWCLLFSDGVKNSSFVLEDNGRGIKQRTGCYSGSAFPCSSNAHMICMRLLNSFLGLLFSSFCLFEKHLKF,soluble
19,MLITEIFHSIQGEGPYAGLPMLFVRTNVCNIRCEWCDTKYSFYGGKEIPLSELLGIVKEAKEGWVCFTGGEPLVQRDALAFVKSVVDMGKNVLIETNGTISIRNFVFSDRIFIDMDVKPPSAKVTKGFLMDNLRYLRKQDYLKIVIKDDTDLDFAIDFVDRYGEGLSFVFQPAWGSDIRRIADRIVGTGYNVRVLPQIHKIIYGDVPGV,not soluble
20,MIDYTAAGFTLLQGAHLYAPEDRGICDVLVANGKIIAVASNIPSDIVPNCTVVDLSGQILCPGFIDQHVHLIGGGGEAGPTTRTPEVALSRLTEAGVTSVVGLLGTDSISRHPESLLAKTRALNEEGISAWMLTGAYHVPSRTITGSVEKDVAIIDRVIGVKCAISDHRSAAPDVYHLANMAAESRVGGLLGGKPGVTVFHMGDSKKALQPIYDLLENCDVPISKLLPTHVNRNVPLFEQALEFARKGGTIDITSSIDEPVAPAEGIARAVQAGIPLARVTLSSDGNGSQPFFDDEGNLTHIGVAGFETLLETVQVLVKDYDFSISDALRPLTSSVAGFLNLTGKGEILPGNDADLLVMTPELRIEQVYARGKLMVKDGKACVKGTFETA,soluble
21,MIQIAIAGSSDEKPLEVAVRKTKEFIKALPSDVILMTGGRGGIMEVASEEFRKKGGIVVGILPYSDNGNRFNTVRVKTGLNPVERSGVLIESADVLVVLGGGVGTMIEALMAYNLGIPVIVITGTGYASDRLMELAKEGYFDHKRIVKVIFTDDPKEAAKLALKIGGERSEARDI,soluble
22,MGSDKIHHHHHHMEKKIVYFNKPGRENTEETLRLAVERAKELGIKHLVVASSYGDTAMKALEMAEGLEVVVVTYHTGFVREGENTMPPEVEEELRKRGAKIVRQSHILSGLERSISRKLGGVSRTEAIAEALRSLFGHGLKVCVEITIMAADSGAIPIEEVVAVGGRSRGADTAVVIRPAHMNNFFDAEIKEIICMPRNKR,soluble
23,DPSVTHVLHQLCDILANNYAFSERIPTLLQHLPNLDYSTVISEEDIAAKLNYELQSLTEDPRLVLKSKTDTLVMPGDSIQAENIPEDEAMLQALVNTVFKVSILPGNIGYLRFDQFADVSVIAKLAPFIVNTVWEPITITENLIIDLRYNVGGSSTAVPLLLSYFLDPETKIHLFTLHNRQQNSTDEVYSHPKVLGKPYGSKKGVYVLTSHQTATAAEEFAYLMQSLSRATIIGEITSGNLMHSKVFPFGDTQLSVTVPIINFIDSNGDYWLGGGVVPDAIVLADEALDKAKEIIAFHPPLA,soluble
24,MGSDKIHHHHHHLNILVTNDDGIMSPGIILLAEALSEDHEVLVVAPDVERSATGHAITIRTPLWAKEVKVGNKNIGYAINGTPADCVKLGLLAISDRKIDLVISGVNKGQNMGIDVLYSGTVSGALEGAVTDTPSIAVSSSDWSNPEYETAARFMVNFLKIYDVSKMPDFTALNINVPSIKYEELKGWKVTRQSRRRYKDYFEKRKDPYGNNYYWIFGEVVEDECSTDCDFNAVKSNFVSITPLHAIMTDKKYFDELKEISEGWSE,not soluble
